Measurements from paper PMC9293632, “PKGIα is activated by metal-dependent oxidation in vitro but not in intact cells” (The Journal of Biological Chemistry, 2022).

Biological target: the molecule itself
Test: cross-linking; disulfide cross-link at Cys43 of freshly purified kinase; diluted in KPE buffer (10 mM potassium phosphate, 1 mM EDTA, pH 7.0) with 0, 5 or 15 mM DTT, 1 h on ice; maleimide in SDS sample buffer, nonreducing 9% SDS-PAGE without heating, anti-Flag Western blot

B1: Flag-tagged WT PKGIα (type I cGMP-dependent protein kinase, alpha isoform) (enzyme, UniProt Q13976 1-671, looked up)
chain: MSELEEDFAKILMLKEERIKELEKRLSEKEEEIQELKRKLHKCQSVLPVPSTHIGPRTTRAQGISAEPQTYRSFHDLRQAFRKFTKSERSKDLIKEAILDNDFMKNLELSQIQEIVDCMYPVEYGKDSCIIKEGDVGSLVYVMEDGKVEVTKEGVKLCTMGPGKVFGELAILYNCTRTATVKTLVNVKLWAIDRQCFQTIMMRTGLIKHTEYMEFLKSVPTFQSLPEEILSKLADVLEETHYENGEYIIRQGARGDTFFIISKGTVNVTREDSPSEDPVFLRTLGKGDWFGEKALQGEDVRTANVIAAEAVTCLVIDRDSFKHLIGGLDDVSNKAYEDAEAKAKYEAEAAFFANLKLSDFNIIDTLGVGGFGRVELVQLKSEESKTFAMKILKKRHIVDTRQQEHIRSEKQIMQGAHSDFIVRLYRTFKDSKYLYMLMEACLGGELWTILRDRGSFEDSTTRFYTACVVEAFAYLHSKGIIYRDLKPENLILDHRGYAKLVDFGFAKKIGFGKKTWTFCGTPEYVAPEIILNKGHDISADYWSLGILMYELLTGSPPFSGPDPMKTYNIILRGIDMIEFPKKIAKNAANLIKKLCRDNPSERLGNLKNGVKDIQKHKWFEGFNWEGLRKGTLTPPIIPSVASPTDTSNFDSFPEDNDEPPPDDNSGWDIDF
notes: PKGIα, the alpha isoform of type I cGMP-dependent protein kinase; On oxidation the two chains of the homodimer are joined by a disulfide between their Cys43 residues; source: HEK293T, transiently transfected, purified (anti-Flag beads, eluted in PBS with Flag peptide)
stoichiometry N: 2
